Our source for the median fluorescence intensity, IC50 and Kd values is PMC9369017.

Test [1] concerns the target SARS-CoV-2 spike protein on Ramos-S cells (SARS-CoV-2) (UniProt P0DTC2). Briefly: flow cytometry on cells. (In general: In flow cytometry, cells or beads pass a laser one at a time.)
The target of test [2] is hexahistidine tagged RBD WT (SARS CoV-2, isolate Wuhan-Hu-1, aa residues 319-541) (SARS-CoV-2) (UniProt P0DTC2). Briefly: peptide or protein array.
For a further test, the target named is EflACE2-Fc-WT (human) (UniProt Q9BYF1). Briefly: BLI. A general note: Biolayer interferometry detects binding as a change in optical thickness at a sensor tip.

“EflACE2-Fc-WT (from UniProt Q9BYF1 19-740) (Fc fusion)” came in with a median fluorescence intensity in test [1] of 19600. In addition, in test [2], the half-maximal inhibitory concentration (IC50) (usually the midpoint of a concentration-inhibition curve) stood at 10 nM.

As for “SARS-CoV-2 spike RBD (analyte of the BLI) (from UniProt P0DTC2) (domain or fragment)”, the equilibrium dissociation constant (Kd) – broadly, a measure of binding affinity in units of concentration – in the test with EflACE2-Fc-WT (human) came to 0.7 nM. In test [1], “flACE2-Fc-WT (from UniProt Q9BYF1 19-740) (Fc fusion)” gave a median fluorescence intensity of 17200. In test [2], this substance gave a concentration for half-maximal inhibition (IC50) of 80 nM. The like results for “trACE2-Fc WT (from UniProt Q9BYF1 19-615) (Fc fusion)” were, in that order, 15500 and 114 nM. Turning to “trACE2-Fc-kif (from UniProt Q9BYF1 19-615) (Fc fusion)”, in test [1], the median fluorescence intensity came to 16400.
